This note sets out measurements from the DeepSol protein solubility set.

This data set is described as follows: soluble on expression in E. coli; label from the status in PepcDB or PDB records.
With “MGSDKIHHHHHHMAIRTCFCTGVLPVTMDDLTSGYNIAEILTLEPEFLSMLGFTYKEAEVYLRYVLDTYTEGQDRFDDVWQLIVNNYDGYRFLPEAEPLFNSTILTYFFKKFAVRKGGIPSELVDENLRTDIGWIRHLTLSLENAKEMQDALVIDDELSYNVSDLSSKFNKRKFFDKSIYPVSLFYLGMTTLRSNYRMVLPNLTMRSIYMDYYNEMNHIEGNAQRYVPTYERFTEERRFEPLVQNYFEQYLGQFPAQVFDKINENFIRCSFFELCSRYLSSCYTFAIEQNNSAGRSDFEMTGIPGTDYYKDDRLAEFKYFKAKEAERMLALSDPRPEDVAQVLAYAKDTKVKFPHYHVRSYIVYICANKGWKCWEVTP”, the “soluble on expression in E. coli” value is reported as “not soluble”. Turning to “MSLKIKLETYYVCKGELAMNPEVSQLLEQIELRKDELLELTKTLIRFETPAPPARNTNEAQQFVADFLRKRNFSVDKWDVYPNDPNVVGVKKGIESETHKSLIINGHMDVAEVSADEAWEKNPFEPFIKDGWLVGRGAADMKGGLAGALFAIQLLEEAGIELPGDLIFQSVIGEEVGEAGTLQCCRRGYDADFAVVVDTSDLHMQGQGGVITGWITVKSPQTFHDATRRQMIHAGGRLFGASAIEKMMKIVQSLQELERHWAVMKTYEGYPSGTTTINPAVIEGGRHAAFIADECRLWITVHFYPNETHEQIIKEIEEYIGKVAAADPWLSENPPQFKWGGESMIVDRGEIFPSLEIDSEHAAVKTLSSVHESVLSKHAILDMSATVTDGGWFSEFHIPAVIYGPGTLEEAHSINEKVEVEQLIEFTKVITAFIYEWCHTKEGHHHHHH”, the “soluble on expression in E. coli” value is given as “soluble”. The entry for “TTNLFGFGIDAESRLDLNSKDMTPEKKAKAESETKRLQEFIRYANLDEGTETVFQNIIEDQEKTGNGYIEVLRDGKGQPVELVHCDSQYIRVCKKTEPVEVGYTIMEKGEPVNILRNKRFRKFVQIIDEKKVWFKEYGDPRIMDSTNGNYVEESELESKEFRDATEIIHFKIGTSAYGVPRWIGNVVSLYGARKAEELNLLYFVNGRHVPAAVVVQGGLLDEDAYNNLEEYMKGVSGTENAYQFLVLEVQGEEITNANGDKNLSDVKVEIKSLADMIQKDAMFLEYDATHRKKMRSSFRLPPIYTGEADEYNKATAETARKTTEEQVFQPMRRKLARKINGAFLEALDISEAKLVLKSPDLTDIASISNAIYPFISAASVIPNDLRPMLE” is “not soluble”; for “MSLGKYFGTDGVRGVANTELTPELAFKLGRIGGYVLTKDKENPKVLIGRDTRISGEMLEGALVAGLLSIGVEVMRLGVISTPGVAFLTKAVSASAGVMISASHNPVADNGIKFFGPDGFKLLDEQEKEIETLLDQEDALPRPTGADLGQANDYFEGAQKYLQFLKQTVDEDFTGIHIALDCANGAASSLAPHLFADLEADISTMGTSPNGKNINDGVGSTHPEALAAFVNAKNADIGLAFDGDADRLIAVDEKGNIVDGDKILYICAKYMKEKGLLKQQTLVTTVMSNLGLYKALEALQIDTKQTAVGDRYVMEEMRKGGYNLGGEQSGHIIFLDHITTGDGMLSALQLVNIMKQTGKKLSELAEEWETFPQTLVNIRVTDKHAVTDNEKVPAVIKEVEQEMNGEGRVLVRPSGTEPLVRIMVEAKTEELCDAFVNKIADVVKAELGQEEGHHHHHH” it is “soluble”; for “MAVDVFITAPSSTPLACEMTISKLVLASGSPRRRELLAQMGYQFEVVVPNVEEKRAAAESPAQYVERLSRDKALAGAALVAAEAVVIGSDTIVVKDQQVLEKPRDFADAKRMLLKLSGSQHQVMTGVSVTCRGITHSVVVTTEVWFKTLSEQEIEAYWQSGEPCDKAGSYGIQGLGGRFVTRIEGSYHAVVGLPLYETDQLLHKF” it is “not soluble”. On to “MNARSTRFTQDEVLDLIIVGGGINGAGIAADATGRGLKVGLYDAKDFASATSSASSKLVHGGLRYLEHYEFRLVSEALAEREVLLKKAPHIVTPMRFRLPHRPFLRPAWMIRAGLFLYDNLGKRTSLPASHKVNLKAGSVTKPEMQIGFEYSDCWVDDARLVILNAMQAQEQGAEVLNYCTVEKAERMGDLWHVTLLDEQTQQRFERRSHALVNAAGPWVKQFLNENAHVSSPYGIRLIQGSHIIVPRIHDEPQAYILQNEDKRIVFVIPYLDDYSMIGTTDVEYKGDPRKVAITDAERDYLISIVNKHFMREIARSDIIAEFSGVRPLCDDESNSPQAITRDYTLSLDQQADEAPLLSIFGGKLTTYRKLGEAAMKHLAPFFPKMKAPWTADAPLPGGENFDYAALKNQLVAAFPFITESVIERWLRSYGSRTTQLLAGVTGIEDLGIAFSGELYQREIDYLCEKEFARHAQDIFWRRSKLGLNHDTSVVEEVESYLQQKFHAEQPLKATVLEHHHHHH”, for which the “soluble on expression in E. coli” value is on record as “soluble”.

With “MGHHHHHHSHMNSAEQTVTWLITLGVLESPKKTISDPEGFLQASLKDGVVLCRLLERLLPGTIEKVYPEPRSESECLSNIREFLRGCGASLRLELLFPPSQPPQHLVTTILLSASTFDANDLYQGQNFNKVLSSLVTLNKVTADIGLGSDSVCARPSSHRIKSFDSLGSQSLHTR”, the “soluble on expression in E. coli” value is given as “soluble”. On to “GPLGSHMASEFINQGDVTEGNNNQEEVYCFCRNVSYGPMVACDNPACPFEWFHYGCVGLKQAPKGKWYCSKDCKEIANQRSKSKRQKRRK”, for which the “soluble on expression in E. coli” value is “soluble”. The entry for “MSLATTLVLGGGYAGMRAVKFLQKSLPTEDEIILVDQTPTHTEKTNLHEVAAGTIAPDRITYQIPDIIGKRVQFVQATVKNVDIEQKQVTFEDHPEMTYDYLVLALGFQSETFGVAGADENALPMDDLATSQAVYEHLEERFKAYRTSKDKNDLKIAVCGAGFTGIELLGELTQTLPRLQAKYQTPAAKLVCLERMPSILPMFTQELRDYALKFMEKNNVEMRLGAVIEAIKPGAVVYSDADKNEHEFTANTIIWTVGVSGSHVIADSGFDQRRNRVVVKPDLSLEGHPEVFIVGDVAAVMDPESNRPYPTTAQIALAAGEQAAKNIGALRHNQATATFHYESSGTVASLSDRDGIGEIFSSNKPVHGYAASALKKIITDRSLLESAHLGTVFSKGRFDLYHEGHHHHHH” is “soluble”; for “MCSHGHSHNCAAEHIPEVPGDDVYRYDMVSYIDMEKVTTLNESVDGAGKKVFKVMEKRDDRLEYVESDCDHELLFNIPFTGHVRLTGLSIIGDEDGSHPAKIRLFKDREAMSFDDCSIEADQEIDLKQDPQGLVDYPLKASKFGNIHNLSILVDANFGEDETKIYYIGLRGEFQHEFRQRIAIATYESRAQLKDHKNEIPDAVAKGLF” it is “not soluble”; for “MVMSQKTLFTKSALAVAVAIISTQAWSAGFQLNEFSSSGLGRAYSGEGAIADDAGNVSRNPALITMFDRPTFSAGAVYIDPDVNISGTSPSRRTLDADNIAPTAWVPNVHFVAPINDQFGWGASITSNYGLATEFNDTYAGGSVGGTTDLETMNLNLSGAYRLNEAWSFGLGFDAVYARAKIERFAGDLGQLVAAQNPALAPVAGQIPSDTKIAHLNGNQWGFGWNAGILYELDKNNRYALTYRSEVKIDFKGNYSSDLPIAINRFNLPIPTATGGATQSGYLTLNLPEMWEVSGYNRVAPQWAIHYSLAYTSWSQFQELKAKSTAGDTLFEKHEGFKDAYRIALGTTYYYDDNWTFRTGIAFDDSPVPAQNRSISIPDQDRFWLSAGTTYAFNKDASVDVGVSYMHGQSVKINEGPYQFESEGKAWLFGTNFNYAF” it is “not soluble”. The entry for “LEGTAGTITSNEWSSPTSPEGSTASGGSQALDKPIDNDAEGVWSPDIEQSFQEALAIYPPCGRRKIILSDEGKMYGRNELIARYIKLRTGKTRTRKQVSSHIQVLARRKAREIQAKLKDQAAKDKALQSMAAMSSAQIISATAFHSSMALARGPGRPAVSGFWQGALPGQAGTSHDVKPFSQQTYAVQPPLPLPGFESPAGPAPSPSAPPAPPWQGRSVASSKLWMLEFSAFLEQQQDPDTYNKHLFVHIGQSSPSYSDPYLEAVDIRQIYDKFPEKKGGLKDLFERGPSNAFFLVKFWADLNTNIEDEGSSFYGVSSQYESPENMIITCSTKVCSFGKQVVEKVETEYARYENGHYSYRIHRSPLCEYMINFIHKLKHLPEKYMMNSVLENFTILQVVTNRDTQETLLCIAYVFEVSASEHGAQHHIYRLVKE” is “soluble”; for “MRIFLLFLFFVLFTFGVEGYVIEEINGSTGLRIHKEIKRKVYITEDALITETEKEFMVQKIENGLPRIYRVIKSSKSYMDFSKMTPLFLVSLPFLDCKQRVCVVNRGAFRPTNEYKKIRGFKARKVVVESHALGKKTTLIQWYTKEWKELVEANRLEDKFYVNFIRAIMKEKNLSEANIPLKEIQNFLKEINEKFGGVVRTQQQMPLFNTYSEVISVKKTEIPDYIYKLPEGYTKIK” it is “not soluble”; for “MTSTPIERAVYIVSDSTGITAETFSHSVLSQFDEVNFKPVRLPFIDTLDKAREVVARINRNALEAGVPPIVFSTLVNPEILALVRQSNGVFLDLFGTFVSHIEQALGLKSSHSIGRSHMAANSEKYRNRIDAINFSLAHDDGQFVNQLDQADVILLGVSRCGKTPTSLYLAMQYAVKAANFPLTPDDFERGALPKTIAPYRGKLFGLSIQPERLAEVRNERRPNSHYARLEQCRYEVAEAERMMRREGISWLSTTTKSIEEIATTVLQEVGLERVAAALEHHHHHH” it is “soluble”.

Regarding “MFDRYDAGEQAVLVHIYFSQDKDMEDLQEFESLVSSAGVEAMQVITGSRKAPHPKYFVGEGKAVEIAEAVKATGAAVVLFDHALSPAQERNLERLCECRVIDRTGLILDIFAQRARTHEGKLQVELAQLRHLATRLVRGWTHLERQKGGIGLRGPGETQLETDRRLLRNRIVQIQSRLEKVEKQREQGRQSRIKADVPTVSLVGYTNAGKSTLFNQITEARVYAADQLFATLDPTLRRIDVADVGETVLADTVGFIRHLPHDLVAAFKATLQETRQATLLLHVVDAADVRVQENIEAVNTVLEEIDAHEIPTLMVMNKIDMLDDFEPRIDRDEENKPIRVWLSAQSGVGIPQLFQALTERLSGEVAQHTLRLPPQEGRLRSRFYQLQAIEKEWMEEDGSVSLQVRMPIVDWRRLCKQEPALIEYVILEHHHHHH”, the “soluble on expression in E. coli” value was “soluble”. With “MMKQSFLANERIYLRAVEPEDLDLMYEMENDPSMWDISSFTVPYSRFVLKQYIEGSQSDMFADKQLRLMIMRRKDNCTLGTVDITDFVPLHSRGAVGIAVHSNYRQEGYASDALKLLCEYAFNFLFIKQLYAHIAVDNEPSLRLFNSCGFTQCGVLKEWLLTHEGYKDAVLVQCMNPKR”, the “soluble on expression in E. coli” value is on record as “not soluble”.

“PNKDVKIVKEVLLYKGSPFTGNIIMNTEDQKDGYIGGISLKNGHLDGLSELKNDRQGQHMRFTVVGGKFDGELIMNDPSQNTYIMLDINKGAIVKYLADIQGVYKYDLNFVNNLANGSMEAQGQIFTFKNGIAKGPQGQELKLTLNPATGDLEMEAFVNGKAAGKQTIPNVLTPQYLESFLFQSITDTNN”: the “soluble on expression in E. coli” value is on record as “not soluble”. Regarding “MRCVYCHNAQLQEFAPGAVGVDDLVGLARRRIGLIDAVVISGGEPTAVPGLAEAICRIHDLGLPVGLHTCGYAPKRLATLVSQPESRPDWIGLDIKALPRHMHEITGCSPRVAQSCWESLAIIDAVGIEVQTRTTLWPGSVIEQNLRELEVMVAAQGHELVVQQARF”, the “soluble on expression in E. coli” value is recorded as “not soluble”. For “MGHHHHHHSHPRPEQHKSYKIRFNSISCSDPLVSSWRRKRKESSNTDSAGALGTLRFCVFGLGSRAYPHFCAFARAVDTRLEELGGERLLQLGQGDELCGQEEAFRGWAQAAFQAACETFCVGEDAKAAARDIFSPKRSWKRQRYRLSAQAEGLQLLPGLIHVHRRKMFQATIRSVENLQSSKSTRATILVRLDTGGQEGLQYQPGDHIGVCPPNRPGLV”, the “soluble on expression in E. coli” value is recorded as “not soluble”.

In the case of “MDSTKVTLTVRGSTAFGEVIAVVGSCETLGSWCQQKAVTLQPAEEDGTLWRTTIHVPRGAETKYRYFKAFILESKNAGGPCQVIVNRWETHQLPRSLSPSEPELVVDDGHFGVHDGAECVDSGWLTCQTEIRLRLHYSVKPPVSITKKKFKTSRIRLKPMLEGVEEEEDED”, the “soluble on expression in E. coli” value is listed as “soluble”.
